This is an account of results in PMC6943137, “A novel 5′-hydroxyl dinucleotide hydrolase activity for the DXO/Rai1 family of enzymes”.

The data set deals with T1, DXO (mouse, UniProt O70348 1-397).
T1 sequence: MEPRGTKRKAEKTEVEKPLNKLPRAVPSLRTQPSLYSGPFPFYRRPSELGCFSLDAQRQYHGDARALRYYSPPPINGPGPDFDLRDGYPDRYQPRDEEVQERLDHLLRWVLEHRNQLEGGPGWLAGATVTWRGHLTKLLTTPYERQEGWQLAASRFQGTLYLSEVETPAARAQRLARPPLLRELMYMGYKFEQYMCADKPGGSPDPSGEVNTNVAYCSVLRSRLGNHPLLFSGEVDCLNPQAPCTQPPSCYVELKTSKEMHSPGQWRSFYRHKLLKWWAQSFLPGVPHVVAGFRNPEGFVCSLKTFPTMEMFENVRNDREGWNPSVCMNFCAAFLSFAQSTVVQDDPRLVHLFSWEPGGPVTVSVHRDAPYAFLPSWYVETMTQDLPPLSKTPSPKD
The data set is described as follows: X-ray crystallography, 2.0 A; Ca2+ (one ion); RNA occupancy ~80%, no hydrolysis in crystal; Crystal structure; crystallization buffer not in the material. Nuclease assays (turnover, not listed): 10 mM Tris pH 7.5, 50 mM KOAc, 2 mM Mg(OAc)2, 2 mM MnCl2, 1 mM DTT, 0.1 mM spermine. The note with it: protein: recombinant; tags: His-tag (pET28a); single strand.

Take UUUUUU (XNA, phosphorothioate backbone; 5'-hydroxyl (5'-PO4 removed by CIP)) [5'-OH U(S)6 RNA]: the binding result is listed as “binds”.
